Experiments:
human α11β1 = human α11β1 (Homo sapiens, UniProt Q9UKX5); assay: ELISA binding to recombinant human α11β1; settings: binding Yes/No
How it was run: (§1)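 Absorbance at 450 nm measured binding of serially diluted antibodies to immobilized α11β1 (human or mouse, coated at 0.25 μg/mL). Antibodies were incubated 1 h at room temperature, then detected with biotinylated anti-IgG, streptavidin-HRP and TMB substrate.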

mouse α11β1 = mouse α11β1 (Mus musculus, UniProt P61622); assay: ELISA binding to recombinant mouse α11β1; settings: binding Yes/No
Chain of mouse α11β1 (P61622 23-1141 limits assumed): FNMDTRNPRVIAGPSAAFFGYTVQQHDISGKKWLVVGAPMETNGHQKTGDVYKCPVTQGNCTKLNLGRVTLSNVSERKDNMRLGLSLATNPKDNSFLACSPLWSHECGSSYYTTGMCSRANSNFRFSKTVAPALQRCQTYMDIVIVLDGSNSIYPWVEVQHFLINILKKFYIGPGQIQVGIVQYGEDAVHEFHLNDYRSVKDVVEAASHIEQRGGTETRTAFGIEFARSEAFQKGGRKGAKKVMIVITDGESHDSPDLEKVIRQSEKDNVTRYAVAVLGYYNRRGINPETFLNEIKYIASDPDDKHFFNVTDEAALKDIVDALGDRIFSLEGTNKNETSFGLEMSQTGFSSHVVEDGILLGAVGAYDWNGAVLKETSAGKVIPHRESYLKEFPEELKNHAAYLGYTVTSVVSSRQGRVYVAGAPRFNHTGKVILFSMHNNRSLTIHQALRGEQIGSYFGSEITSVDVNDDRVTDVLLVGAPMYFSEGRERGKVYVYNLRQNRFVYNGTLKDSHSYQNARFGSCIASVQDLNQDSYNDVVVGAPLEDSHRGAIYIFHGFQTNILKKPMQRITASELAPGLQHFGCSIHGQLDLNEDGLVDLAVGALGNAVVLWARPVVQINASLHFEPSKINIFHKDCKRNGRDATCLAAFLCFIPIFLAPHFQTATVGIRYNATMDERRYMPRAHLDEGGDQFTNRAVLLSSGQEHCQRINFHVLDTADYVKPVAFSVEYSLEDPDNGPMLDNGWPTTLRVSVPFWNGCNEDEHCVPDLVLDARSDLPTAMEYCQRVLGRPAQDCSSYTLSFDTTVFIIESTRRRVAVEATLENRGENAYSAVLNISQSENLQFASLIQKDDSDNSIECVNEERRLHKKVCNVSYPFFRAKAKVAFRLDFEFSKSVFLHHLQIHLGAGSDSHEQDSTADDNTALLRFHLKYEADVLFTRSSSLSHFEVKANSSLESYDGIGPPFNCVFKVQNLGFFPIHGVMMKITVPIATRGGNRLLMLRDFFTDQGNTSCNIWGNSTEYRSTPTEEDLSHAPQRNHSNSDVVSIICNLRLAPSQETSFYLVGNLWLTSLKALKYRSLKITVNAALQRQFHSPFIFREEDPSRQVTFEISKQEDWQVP
Chain of mouse α11β1 (P09055 21-728 partner limits assumed): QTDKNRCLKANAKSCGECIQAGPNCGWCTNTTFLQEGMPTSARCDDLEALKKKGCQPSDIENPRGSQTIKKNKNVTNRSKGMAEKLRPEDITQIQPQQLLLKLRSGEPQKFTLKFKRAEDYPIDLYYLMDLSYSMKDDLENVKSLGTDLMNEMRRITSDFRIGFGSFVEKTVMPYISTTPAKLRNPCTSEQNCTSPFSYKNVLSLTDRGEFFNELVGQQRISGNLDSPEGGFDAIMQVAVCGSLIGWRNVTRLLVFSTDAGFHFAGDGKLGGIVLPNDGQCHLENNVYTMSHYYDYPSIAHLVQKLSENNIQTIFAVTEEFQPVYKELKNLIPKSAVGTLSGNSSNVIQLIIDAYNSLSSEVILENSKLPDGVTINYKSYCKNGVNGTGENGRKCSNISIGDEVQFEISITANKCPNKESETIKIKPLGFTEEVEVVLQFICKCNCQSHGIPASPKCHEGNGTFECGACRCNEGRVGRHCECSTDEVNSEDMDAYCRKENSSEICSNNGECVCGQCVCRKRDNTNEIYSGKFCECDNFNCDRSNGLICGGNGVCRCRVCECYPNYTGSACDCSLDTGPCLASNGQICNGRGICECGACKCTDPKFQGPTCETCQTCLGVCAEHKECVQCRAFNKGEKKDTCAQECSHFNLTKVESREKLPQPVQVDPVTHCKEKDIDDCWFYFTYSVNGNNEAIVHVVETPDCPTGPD
How it was run: as §1

α1β1, α2β1 and/or α10β1 = assay: Counter-screen for cross-reactivity to other collagen receptors; format: binding, human; settings: cross-reactivity to α1β1, α2β1, α10β1
How it was run: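 Rat- and mouse-derived anti-α11β1 hybridoma supernatants or clones, first identified by ELISA against human and mouse α11β1, were counter-screened by ELISA against human α1β1, α2β1 and α10β1 to assess cross-reactivity to related collagen receptors.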

I domain of α11β1 = target: T1, I domain of α11β1 (Homo sapiens, UniProt Q9UKX5); assay: ELISA binding to in-house generated I domain of α11β1; settings: Yes/No
T1 construct: An in-house generated I domain of α11β1 was used; made in house
T1 sequence (Q9UKX5 164-345 limits assumed): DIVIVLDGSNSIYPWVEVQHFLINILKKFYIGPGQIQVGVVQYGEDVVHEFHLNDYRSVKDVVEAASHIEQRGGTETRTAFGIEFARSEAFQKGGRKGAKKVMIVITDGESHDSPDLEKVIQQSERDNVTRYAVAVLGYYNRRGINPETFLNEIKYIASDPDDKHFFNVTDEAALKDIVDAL
How it was run: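 Plate-coated antigen (0.25 μg/mL, overnight 4° C) probed with antibody dilution series 1 h at room temperature, then biotinylated anti-IgG and streptavidin-HRP, 1 h each. TMB substrate 5 min, stopped, absorbance at 450 nm; in-house I domain of α11β1 used as target.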

[1] = system: human pulmonary fibroblasts (HPFs); assay: FACS antibody binding to human pulmonary fibroblasts; settings: binding Yes/No
myofibroblasts (MF) = assay: FACS antibody binding to myofibroblasts; set-up: species or system human; settings: binding Yes/No
How it was run: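 Human pulmonary fibroblasts, serum-starved 24 h then TGFβ-1-treated 72 h to give myofibroblasts, were blocked with heat-inactivated FBS and stained with anti-α11 antibodies, then PE secondary, 30 min each at 4 °C, before 1% PFA fixation. Binding read by flow cytometry as PE geometric MFI of single cells.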

[2] = system: CHO-K1 cells expressing human α11; assay: Cell adhesion inhibition (xCelligence), type I collagen; format: cell-based; settings: Yes/No
How it was run: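 CHO-K1 cells expressing human α11 (0.6×10^6 cells/mL) were preincubated with mAbs across a concentration range for 20 min at 37° C, then seeded on wells coated with 100 ng/mL type I collagen and blocked with 3% BSA. Impedance-based adhesion was recorded over 6 h, and maximum adhesion was compared with untreated control.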

Chain of human α11β1 (Q9UKX5 23-1141 limits assumed): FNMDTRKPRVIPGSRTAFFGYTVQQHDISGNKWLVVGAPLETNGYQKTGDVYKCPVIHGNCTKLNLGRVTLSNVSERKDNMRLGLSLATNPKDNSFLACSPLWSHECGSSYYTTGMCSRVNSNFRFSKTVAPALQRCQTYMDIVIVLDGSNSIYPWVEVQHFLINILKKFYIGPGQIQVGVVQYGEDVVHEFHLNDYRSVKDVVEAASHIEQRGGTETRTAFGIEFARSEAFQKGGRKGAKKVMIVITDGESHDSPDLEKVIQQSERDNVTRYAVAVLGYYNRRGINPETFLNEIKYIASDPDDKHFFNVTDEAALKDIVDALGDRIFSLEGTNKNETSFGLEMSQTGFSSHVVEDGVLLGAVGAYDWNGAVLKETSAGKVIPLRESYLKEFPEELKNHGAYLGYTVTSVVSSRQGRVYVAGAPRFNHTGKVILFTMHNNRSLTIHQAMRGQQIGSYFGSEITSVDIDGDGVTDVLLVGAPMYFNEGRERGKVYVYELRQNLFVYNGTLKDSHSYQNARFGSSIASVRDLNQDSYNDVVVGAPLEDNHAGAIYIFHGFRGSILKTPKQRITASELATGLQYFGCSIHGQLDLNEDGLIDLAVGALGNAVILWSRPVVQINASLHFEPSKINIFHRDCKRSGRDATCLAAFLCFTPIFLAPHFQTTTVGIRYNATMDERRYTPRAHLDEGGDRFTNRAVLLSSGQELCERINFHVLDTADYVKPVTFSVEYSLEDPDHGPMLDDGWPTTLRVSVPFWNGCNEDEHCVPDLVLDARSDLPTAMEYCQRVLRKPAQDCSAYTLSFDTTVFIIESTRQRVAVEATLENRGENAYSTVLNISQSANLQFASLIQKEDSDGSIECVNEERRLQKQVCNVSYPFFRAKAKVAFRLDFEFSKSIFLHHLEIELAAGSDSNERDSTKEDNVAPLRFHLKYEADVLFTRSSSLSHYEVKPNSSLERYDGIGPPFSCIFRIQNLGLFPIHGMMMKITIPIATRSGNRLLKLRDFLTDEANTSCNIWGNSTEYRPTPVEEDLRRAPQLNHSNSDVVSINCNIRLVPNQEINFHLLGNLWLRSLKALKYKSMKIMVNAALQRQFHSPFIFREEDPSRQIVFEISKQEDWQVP
Chain of human α11β1 (P05556 21-728 partner limits assumed): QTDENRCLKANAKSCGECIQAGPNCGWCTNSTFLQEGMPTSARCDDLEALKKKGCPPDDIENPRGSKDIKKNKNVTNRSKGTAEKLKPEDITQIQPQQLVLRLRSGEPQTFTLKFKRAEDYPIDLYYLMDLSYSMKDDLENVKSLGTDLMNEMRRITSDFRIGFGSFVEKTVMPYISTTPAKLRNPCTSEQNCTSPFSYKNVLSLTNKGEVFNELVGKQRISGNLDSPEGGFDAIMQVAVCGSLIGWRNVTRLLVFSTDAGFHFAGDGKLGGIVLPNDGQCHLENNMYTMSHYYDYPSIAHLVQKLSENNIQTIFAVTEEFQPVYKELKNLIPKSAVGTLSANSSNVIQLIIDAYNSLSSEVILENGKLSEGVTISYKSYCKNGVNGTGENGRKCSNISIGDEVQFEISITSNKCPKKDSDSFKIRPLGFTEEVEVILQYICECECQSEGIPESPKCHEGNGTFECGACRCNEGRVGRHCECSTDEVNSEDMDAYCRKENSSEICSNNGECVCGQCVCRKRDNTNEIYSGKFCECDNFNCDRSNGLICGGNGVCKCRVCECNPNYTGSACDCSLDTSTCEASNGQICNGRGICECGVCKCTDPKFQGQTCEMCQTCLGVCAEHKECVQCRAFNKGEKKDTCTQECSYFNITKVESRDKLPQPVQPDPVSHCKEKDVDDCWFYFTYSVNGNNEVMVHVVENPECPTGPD

B1: 3B1: rabbit anti-α11β1 mAb; heavy chain SEQ ID NO: 201, light chain SEQ ID NO: 202 (antibody)
heavy: METGLRWLLLVAVLKGVQCQEQLEESGGGLVKPEGSLTLTCKASGFDLSSGYDMCWVRQAPGKGLEWIACIYADYSGSTYYASWVNGRFTISSSTSLNTVDLKMTSLTAADTATYFCARGATGNGGYGYYFNLWGPGTLVTVSSGQPKAPSVFPLAPCCGDTPSSTVTLGCLVKGYLPEPVTVTWNSGTLTNGVRTFPSVRQSSGLYSLSSVVSVTSSSQPVTCNVAHPATNTKVDKTVAPSTCSKPMCPPPELPGGPSVFIFPPKPKDTLMISRTPEVTCVVVDVSQDDPEVQFTWYINNEQVRTARPPLREQQFNSTIRVVSTLPIAHQDWLRGKEFKCKVHNKALPAPIEKTISKARGQPLEPKVYTMGPPREELSSRSVSLTCMINGFYPSDISVEWEKNGKAEDNYKTTPTVLDSDGSYFLYSKLSVPTSEWQRGDVFTCSVMHEALHNHYTQKSISRSPGK
light: MDTRAPTQLLGLLLLWLPGARCADIVMTQTPASVSEPVGGTVTIKCQASQNINSGLAWYQQKPGQPPKLLIYKASTLASGVSSRFKGSGSGTEFTLTISDLECADAATYYCQTYYYSSSSSDNAFGGGTEVVVKGDPVAPTVLIFPPAADQVATGTVTIVCVANKYFPDVTVTWEVDGTTQTTGIENSKTPQNSADCTYNLSSTLTLTSTQYNSHKEYTCKVTQGTTSVVQSFNRGDC
In the case of B1, the “Human α11β1 ELISA” value (human α11β1) is reported as “Yes”, the “Murine α11β1 ELISA” value (mouse α11β1) is reported as “No” and the “Off Target” value (α1β1, α2β1 and/or α10β1) is reported as “No”. For the same molecule, the “I Domain binding” value (I domain of α11β1) was “No”, the “HPF FACS” value [1] was “No” and the “MF FACS” value (myofibroblasts (MF)) was “Yes”. For the same molecule, the “Inhibition of CHO-K1 adhesion to collagen” value [2] was “Yes”.

B2: 10-L15: mouse anti-α11β1 mAb; VH SEQ ID NO: 119, VL SEQ ID NO: 120 (antibody, V domains shown)
VH: QVQLQQSGPELVRPGASVKMSCKASGYTFTSYWMHWVKQRPGQGLEWIGMIDPSNSETWLNQKFKDKATLNVDKSSNTAYMQLSSLTSEDSAVYYCARYDGYYDYWGQGTTLTVSS
VL: NIVLTQSPASLAVSLGQRATISCRASESVDSYGNSFMHWYQQKPGQPPKLLIYLASNVESGVPARFSGSGSRTDFTLTIDPVEADDAATYYCQQNNEDPWTFGGGTKLEIK
B2 was tested, and the “Human α11β1 ELISA” value (human α11β1) was “Yes”, the “Murine α11β1 ELISA” value (mouse α11β1) was “Yes” and the “Off Target” value (α1β1, α2β1 and/or α10β1) was “No”. The “I Domain binding” value (I domain of α11β1) was “Yes”, the “HPF FACS” value [1] was “No” and the “MF FACS” value (myofibroblasts (MF)) was “No”. For the same molecule, the “Inhibition of CHO-K1 adhesion to collagen” value [2] was “No”.

From patent publication US12460006B2, “Antibodies against integrin alpha 11 beta 1” (Momenta Pharmaceuticals, Inc., priority 2019, dated 2025)
